US20230263916A1 (NANOMAB TECHNOLOGY, published 2023)
Numbering of substitutions follows the chain as printed.

B1: Nanobody No. 9 (VHH)
VHH: QVQLQESGGGSVQAGETLRLSCTASGFTFDDSDMGWYRQAPGSECELVSTISSDGNTYYSNSVKGRFTISQDNAKNTVYLQMNSLKPEDTAVYYCAADDQHYELGTCEALDYWGRGTQVTVSS
notes: camel VHH from pMECs phage display vector; also called Antibody no; not shown: tags (HA, His) implied by anti-HA detection and nickel column
B2: Nanobody No. 10 (VHH)
VHH: B1 VHH with R19K, D33T, G35A, S43N, E46K, N56S, S60A, N61D, H101N
notes: camel VHH from pMECs phage display vector; also called Antibody no; 10; not shown: tags (HA, His) implied by anti-HA detection and nickel column
B3: Nanobody No. 17 (VHH)
VHH: QVQLQESGGGSVQAGGSLRLSCTASGFTFDDSDMGWYRQAPGNECELVSTISSDGSTYYADSVKGRFTISQDNAKNTVYLQMNSLKPEDTAVYYCADVQIPYGLGTCESLDYWGRGTQVTVSS
notes: camel VHH from pMECs phage display vector; also called Antibody no; 17; not shown: tags (HA, His) implied by anti-HA detection and nickel column
B4: Nanobody No. 13 (VHH)
VHH: QVQLQESGGGSVQAGETLRLSCTASGFTFDDSDMGWYRQAPGNECELVSTISADGSTFYADSVKGRFTISQDNAKNTVYLQMNSLKPEDTAVYYCASPENEYELGTCEALDYWGQGTQVTVSS
notes: camel VHH from pMECs phage display vector; also called Antibody no; 13; not shown: tags (HA, His) implied by anti-HA detection and nickel column
B5: Nanobody No. 22 (VHH)
VHH: B3 VHH with T50R, S53R, S56T, V98I, Q99N, I100S, P101G, G103E
notes: camel VHH from pMECs phage display vector; also called Antibody no; 22; not shown: tags (HA, His) implied by anti-HA detection and nickel column
B6: Nanobody No. 23 (VHH)
VHH: QVQLQESGGGSVQAGGSLKLSCSASGFTFDDTDMGWYRQAPGNECELVSTISSDGTTYYTDSVKGRFTISQDNAKNTVYLQMNSLKPEDTAVYYCAAINSGYELGTCESLDYWGRGTQVTVSS
notes: camel VHH from pMECs phage display vector; also called Antibody no; 23; not shown: tags (HA, His) implied by anti-HA detection and nickel column
B7: Nanobody No. 26 (VHH)
VHH: QVQLQESGGGSVQAGETLRLSCTASGFTFDDSDMGWYRQAPGNECELVSSISSDGSTYYADSVKGRFTISQDNAKNTVYLQMNSLKPEDTGVYYCAAEGHRYELGTCAALDYWGRGTQVTVSS
notes: camel VHH from pMECs phage display vector; also called Antibody no; 26; not shown: tags (HA, His) implied by anti-HA detection and nickel column
B8: Nanobody No. 37 (VHH)
VHH: QVQLQESGGGSVQAGETLRLSCTVSGFTFDDADMGWYRQAPGNQCELVSTISSDGITYYADSVKGRFTVSQDNAKNTVYLQMNSLKPEDTAMYYCAAARYSDYEGMCGYWSQGTQVTVSS
notes: also called 37; not shown: tags (HA, His) implied by anti-HA detection and nickel column
B9: Nanobody No. 38 (VHH)
VHH: QVQLQESGGGSVQAGGSLRLSCAASGFTYTGYCMGWFRQAPGKEREGVATVDSDGDTSYADSVKGRFTISKDNAKNTLYLQMNSLKPEDTAMYYCAADFSRWHLCSTSLATLGYWGQGTQVTVSS
notes: also called 38; not shown: tags (HA, His) implied by anti-HA detection and nickel column
B10: Nanobody No. 39 (VHH)
VHH: QVQLQESGGGSVQAGGSLRLSCAASGYTYTGYCMGWFRQAPGKEREGVATIDSDGDTSYADSVKGRFTISKDNAKNTLYLQMNSLKPEDTAMYYCAADFRRWHLCSSSFREDGMDYWGKGTQVTVSS
notes: also called 39; not shown: tags (HA, His) implied by anti-HA detection and nickel column
B11: Nanobody No. 40 (VHH)
VHH: B10 VHH with G16E, S17T, P41T, S58T, A74G, R110Q, D112Y, G113D
notes: also called 40; not shown: tags (HA, His) implied by anti-HA detection and nickel column

target: T1, human Her2 (ECD)-Fc protein (human, UniProt P04626 23-652); test: PE-ELISA, A405 of antigen well over control well
T1 construct: extracellular domain; Made in HEK293F cells; also called hHer2 (ECD)-Fc antigen; Her2 (ECD)-Fc antigen; not shown: TEV restriction site at the C-terminal of hHer2 (ECD); IgG1 Fc of the pFUSE-IgG1 vector
Description: (§1) (1) 10 μg Her2 (ECD)-Fc antigen (10 μg Fc in NaHCO₃ as control) dissolved in 100 mM NaHCO₃ (pH 8.2) was coupled to a NUNC plate then incubated at 4° C. overnight.
(§2) (5) The unbound antibody was washed off with PBST.
(§3) (6) When the OD value of the sample was over 3 times of the OD value of the control sample (Ratio+/−>3), the tested sample was determined to be a positive clone. […] Then all the positive clones were transferred to LA medium for plasmid extraction and sequencing.

Row | Binder | Ratio(+/-)
1 | B1 | 24.3
2 | B2 | 22.4
3 | B3 | 23.8
4 | B4 | 25.1
5 | B5 | 21.3
6 | B6 | 17.1
7 | B7 | 21.1
8 | B8 | 19.6
9 | B9 | 21.8
10 | B10 | 17.8
11 | B11 | 19.1

target: T2, human HER2 antigen protein (human, UniProt P04626 23-652); test: Biacore, Her2 immobilised on CM-5 chip
T2 construct: Antigen coated in the ELISA of Embodiment 5 and immobilised on the CM-5 chip in Embodiment 7; Embodiment 7 says only 'antigen protein Her2' without species or construct; also called antigen protein Her2
Description: (1) Immobilization: the stationary phase antigen protein Her2 was immobilized on the surface of CM-5 sensor chip by carboxyl amino reaction.
(3) Chip regeneration: when next antibody was determined, the chip was washed with 10 mM Glycine.

Row | Binder | Kd | koff | kon
12 | B1 | 3.6 nM | 0.00397 s⁻¹ | 1.11e+06 M⁻¹ s⁻¹
13 | B2 | 6.47 nM | 0.00457 s⁻¹ | 706000 M⁻¹ s⁻¹
14 | B3 | 6.68 nM | 0.00421 s⁻¹ | 631000 M⁻¹ s⁻¹
15 | B4 | 1.18 nM | 0.0015 s⁻¹ | 1.27e+06 M⁻¹ s⁻¹
16 | B5 | 1.98 nM | 0.0019 s⁻¹ | 957000 M⁻¹ s⁻¹
17 | B6 | 3.73 nM | 0.00255 s⁻¹ | 682000 M⁻¹ s⁻¹
18 | B7 | 1.31 nM | 0.00112 s⁻¹ | 857000 M⁻¹ s⁻¹

target: T3, Her2 on cells (BT474, high expression; MDA-MB-231, low expression) (UniProt P04626 23-1255, limits assumed); test: flow cytometry on MDA-MB-231 cells (low Her2), anti-HA Alexa Fluor488
T3 construct: whole, on cells; Endogenous Her2 of tumour cell lines
Description: (§4) (3) Cells were divided into 96-well plates after washing, where number of cells per sample was 3×10⁵. The dilute nanobodies were then added to each well, mixed and placed at 4° C. for 20 min.
(§5) (4) Cells were washed twice with PBS and resuspended with 100 uL PBS. […] Mouse anti-HA Alexa Fluor488 labeled antibody was then added to each sample, mixed and placed at 4° C. for 20 min.
(§6) (5) Cells were washed twice with PBS and then resuspended to the flow tube with 300 uL PBS. Samples were kept on ice in dark condition. Detection was held via machine.

Row | Binder | positive rate
19 | B1 | 9.5%
20 | B2 | 10.6%
21 | B3 | 12.3%
22 | B4 | 14.2%
23 | B5 | 5.8%
24 | B6 | 11.5%
25 | B7 | 16.7%

target: T3, Her2 on cells (BT474, high expression; …); test: flow cytometry on BT474 cells (high Her2), anti-HA Alexa Fluor488
Description: as §4, §5, §6

Row | Binder | positive rate
26 | B1 | 99.8%
27 | B2 | 99.7%
28 | B3 | 99.9%
29 | B4 | 99.9%
30 | B5 | 99.7%
31 | B6 | 99.9%
32 | B7 | 99.9%

target: T1, human Her2 (ECD)-Fc protein; test: PE-ELISA, crude extract on antigen-coated plate
Description: as §1, §2, §3

Row | Binder | A405+
33 | B1 | 2.15 A405
34 | B2 | 1.63 A405
35 | B3 | 1.88 A405
36 | B4 | 2.24 A405
37 | B5 | 1.78 A405
38 | B6 | 1.77 A405
39 | B7 | 1.9 A405
40 | B8 | 2.1 A405
41 | B9 | 2.14 A405
42 | B10 | 1.86 A405
43 | B11 | 1.57 A405
